Test results: publication PMC10980208, “A novel micellular fluorogenic substrate for quantitating the activity of 1-phosphatidylinositol 4,5-bisphosphate phosphodiesterase gamma (PLCγ) enzymes” (PLOS ONE, 2024)

B1: PLCγ2 (Homo sapiens) (protein)
chain: MSTTVNVDSLAEYEKSQIKRALELGTVMTVFSFRKSTPERRTVQVIMETRQVAWSKTADKIEGFLDIMEIKEIRPGKNSKDFERAKAVRQKEDCCFTILYGTQFVLSTLSLAADSKEDAVNWLSGLKILHQEAMNASTPTIIESWLRKQIYSVDQTRRNSISLRELKTILPLINFKVSSAKFLKDKFVEIGAHKDELSFEQFHLFYKKLMFEQQKSILDEFKKDSSVFILGNTDRPDASAVYLHDFQRFLIHEQQEHWAQDLNKVRERMTKFIDDTMRETAEPFLFVDEFLTYLFSRENSIWDEKYDAVDMQDMNNPLSHYWISSSHNTYLTGDQLRSESSPEAYIRCLRMGCRCIELDCWDGPDGKPVIYHGWTRTTKIKFDDVVQAIKDHAFVTSSFPVILSIEEHCSVEQQRHMAKAFKEVFGDLLLTKPTEASADQLPSPSQLREKIIIKHKKLGPRGDVDVNMEDKKDEHKQQGELYMWDSIDQKWTRHYCAIADAKLSFSDDIEQTMEEEVPQDIPPTELHFGEKWFHKKVEKRTSAEKLLQEYCMETGGKDGTFLVRESETFPNDYTLSFWRSGRVQHCRIRSTMEGGTLKYYLTDNLTFSSIYALIQHYRETHLRCAEFELRLTDPVPNPNPHESKPWYYDSLSRGEAEDMLMRIPRDGAFLIRKREGSDSYAITFRARGKVKHCRINRDGRHFVLGTSAYFESLVELVSYYEKHSLYRKMRLRYPVTPELLERYNMERDINSLYDVSRMYVDPSEINPSMPQRTVKALYDYKAKRSDELSFCRGALIHNVSKEPGGWWKGDYGTRIQQYFPSNYVEDISTADFEELEKQIIEDNPLGSLCRGILDLNTYNVVKAPQGKNQKSFVFILEPKQQGDPPVEFATDRVEELFEWFQSIREITWKIDTKENNMKYWEKNQSIAIELSDLVVYCKPTSKTKDNLENPDFREIRSFVETKADSIIRQKPVDLLKYNQKGLTRVYPKGQRVDSSNYDPFRLWLCGSQMVALNFQTADKYMQMNHALFSLNGRTGYVLQPESMRTEKYDPMPPESQRKILMTLTVKVLGARHLPKLGRSIACPFVEVEICGAEYDNNKFKTTVVNDNGLSPIWAPTQEKVTFEIYDPNLAFLRFVVYEEDMFSDPNFLAHATYPIKAVKSGFRSVPLKNGYSEDIELASLLVFCEMRPVLESEEELYSSCRQLRRRQEELNNQLFLYDTHQNLRNANRDALVKEFSVNENQLQLYQEKCNKRLREKRVSNSKFYS
B2: PLCγ1 (Homo sapiens) (protein)
chain: AGAASPCANGCGPGAPSDAEVLHLCRSLEVGTVMTLFYSKKSQRPERKTFQVKLETRQITWSRGADKIEGAIDIREIKEIRPGKTSRDFDRYQEDPAFRPDQSHCFVILYGMEFRLKTLSLQATSEDEVNMWIKGLTWLMEDTLQAPTPLQIERWLRKQFYSVDRNREDRISAKDLKNMLSQVNYRVPNMRFLRERLTDLEQRSGDITYGQFAQLYRSLMYSAQKTMDLPFLEASTLRAGERPELCRVSLPEFQQFLLDYQGELWAVDRLQVQEFMLSFLRDPLREIEEPYFFLDEFVTFLFSKENSVWNSQLDAVCPDTMNNPLSHYWISSSHNTYLTGDQFSSESSLEAYARCLRMGCRCIELDCWDGPDGMPVIYHGHTLTTKIKFSDVLHTIKEHAFVASEYPVILSIEDHCSIAQQRNMAQYFKKVLGDTLLTKPVEISADGLPSPNQLKRKILIKHKKLAEGSAYEEVPTSMMYSENDISNSIKNGILYLEDPVNHEWYPHYFVLTSSKIYYSEETSSDQGNEDEEEPKEVSSSTELHSNEKWFHGKLGAGRDGRHIAERLLTEYCIETGAPDGSFLVRESETFVGDYTLSFWRNGKVQHCRIHSRQDAGTPKFFLTDNLVFDSLYDLITHYQQVPLRCNEFEMRLSEPVPQTNAHESKEWYHASLTRAQAEHMLMRVPRDGAFLVRKRNEPNSYAISFRAEGKIKHCRVQQEGQTVMLGNSEFDSLVDLISYYEKHPLYRKMKLRYPINEEALEKIGTAEPDYGALYEGRNPGFYVEANPMPTFKCAVKALFDYKAQREDELTFIKSAIIQNVEKQEGGWWRGDYGGKKQLWFPSNYVEEMVNPVALEPEREHLDENSPLGDLLRGVLDVPACQIAIRPEGKNNRLFVFSISMASVAHWSLDVAADSQEELQDWVKKIREVAQTADARLTEGKIMERRKKIALELSELVVYCRPVPFDEEKIGTERACYRDMSSFPETKAEKYVNKAKGKKFLQYNRLQLSRIYPKGQRLDSSNYDPLPMWICGSQLVALNFQTPDKPMQMNQALFMTGRHCGYVLQPSTMRDEAFDPFDKSSLRGLEPCAISIEVLGARHLPKNGRGIVCPFVEIEVAGAEYDSTKQKTEFVVDNGLNPVWPAKPFHFQISNPEFAFLRFVVYEEDMFSDQNFLAQATFPVKGLKTGYRAVPLKNNYSEDLELASLLIKIDIFPAKENGDLSPFSGTSLRERGSDASGQLFHGRAREGSFESRYQQPFEDFRISQEHLADHFDSRERRAPRRTRVNGDNRL

Substrate: CCCCCCCCCCCCCCCCOc1cc(COC(=O)Nc2ccc3c(C(F)(F)F)cc(=O)oc3c2)ccc1OP(=O)(O)O[C@@H]1[C@H](O)[C@H](O)[C@@H](OP(=O)(O)O)[C@H](OP(=O)(O)O)[C@H]1O
Experiment: purified protein
Conditions: Ca2+

Protein | Km | Vmax | kcat | kcat/Km
B1 | 4.6 ± 0.8 µM | 0.019 µmol/min/mg | 0.045 ± 0.00333 s⁻¹ | 10000 ± 1670 M⁻¹ s⁻¹
B2 | 27.7 ± 14.5 µM | 0.35 µmol/min/mg | 0.833 ± 0.367 s⁻¹ | 32700 ± 6670 M⁻¹ s⁻¹
